Measurements taken from US20240287172A1, “PROTEIN BINDERS TO IRHOM2 EPITOPES” (SCIRHOM GMBH, priority 2019, published 2024).
Where a chain is given by its changes, count along the chain named. One block for each binder: values may come before it.

How the values were obtained:
[1] = biological target: T1, hiR2-FL-H505R-T7 (human) (UniProt Q6PJF5); assay: FACS, MEF-DKO cells, 3 µg/ml
T1 sequence: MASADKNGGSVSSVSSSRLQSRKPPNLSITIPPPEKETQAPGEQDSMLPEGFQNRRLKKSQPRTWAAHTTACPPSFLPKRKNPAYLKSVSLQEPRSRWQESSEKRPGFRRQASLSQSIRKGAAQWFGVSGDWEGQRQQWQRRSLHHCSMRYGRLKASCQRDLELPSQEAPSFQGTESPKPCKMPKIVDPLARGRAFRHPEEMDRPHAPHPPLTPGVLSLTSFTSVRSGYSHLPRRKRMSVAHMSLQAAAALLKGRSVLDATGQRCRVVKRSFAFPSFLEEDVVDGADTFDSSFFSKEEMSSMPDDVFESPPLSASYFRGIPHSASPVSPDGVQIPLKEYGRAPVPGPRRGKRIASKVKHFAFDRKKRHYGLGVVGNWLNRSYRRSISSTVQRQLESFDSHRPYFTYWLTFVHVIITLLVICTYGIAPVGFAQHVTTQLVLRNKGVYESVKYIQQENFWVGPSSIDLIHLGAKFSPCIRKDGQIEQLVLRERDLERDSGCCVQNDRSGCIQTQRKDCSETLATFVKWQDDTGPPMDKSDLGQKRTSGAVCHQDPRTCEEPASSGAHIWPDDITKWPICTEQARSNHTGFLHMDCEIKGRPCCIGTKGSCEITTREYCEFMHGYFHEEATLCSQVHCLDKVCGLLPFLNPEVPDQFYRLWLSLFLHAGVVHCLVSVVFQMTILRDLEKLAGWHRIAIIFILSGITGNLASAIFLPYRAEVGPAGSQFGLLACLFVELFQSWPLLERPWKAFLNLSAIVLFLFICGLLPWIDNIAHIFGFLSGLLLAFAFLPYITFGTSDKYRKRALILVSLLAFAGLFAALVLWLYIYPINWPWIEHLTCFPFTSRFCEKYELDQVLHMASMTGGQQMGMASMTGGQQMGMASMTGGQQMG

[2] = biological target: T2, hiR2-FL-K536A-T7 (human) (UniProt Q6PJF5); assay: FACS on MEF-DKO cells expressing the variant, 3 µg/ml antibody
T2 sequence: T1 sequence with R505H, K536A

- loss of binding vs wild type [2]: > 95%
B4: antibody 44 (antibody, V domains shown)
VH: QVTLKESGPGILQPSQTLSLTCSFSGFSLSTFGMGVGWIRQPSEKGLEWLAHIWWDDDKYYNPALKSRLTISKDTSKNQIFLKITNVDTAETATYYCSRIGNYGSNYWYFDVWGTGTTVTVSS
VL: QIVLTQSPAVMSASPGEKVTMTCTASSSVYYMYWYQQTPGSSPRLLIYDTSNLASGVPVRFSGSGSGTSYSLTISRMEAEDAATYYCQQWNTYPLTFGAGTKLELK

- loss of binding vs wild type [2]: > 95%
B5: antibody 34 (antibody, V domains shown)
VH: QVTLKESGPGILQPSQTLSLTCSFSGFSLSTFSLGVGWIRQSSGKGLEWLAHIWWDDEKYYNPALKSRLTISKDTSKNQVFLKIANVDAADTATYYCARAYYSKSYYALDYWGQGTSVTVSS
VL: DIQMTQSPSSLSASLGERVSLTCRASQEISGYLSWLQQKPDGTIKRLIYAASTLDSGVPKRFSGSRSGSDYSLAISSLESEDFADYYCLQYANFPFTFGSGTKLEIK

The next lines start with the binder.

B1: antibody 48 (antibody, V domains shown)
VH: QVQLQQSGTELVRPGTSVKVSCKASGYAFTNYLIEWVKQRPGQGLEWIGVINPGSGFTKYNEKFKGKATLTADKSSSTVYMHLSSLTSEDSAVYFCARGLYRAMDYWGQGTSVTVSS
VL: DIQMTQSPASQSASLGESVTITCLASQTIATWLAWYQQKPGKSPQLLIYGATTLADGVPSRFSGGGSGTKFSFKISSLQAEDFVSYYCQQLYSTPYTFGGGTKLEIK
- loss of binding vs wild type [1]: > 60%

B2: antibody 22 (antibody, V domains shown)
VH: B4 VH with E44G, D58E, P63S, D74A, I80V, T85A, E91D, S98A, G101S, D111N
VL: B4 VL with I2V, V10L, T24S, S26G, Y30S, T38K, L45V, V59A, S62T, T92S
- loss of binding vs wild type [2]: > 95%

B3: antibody 42 (antibody, V domains shown)
VH: B4 VH with F24L, M34R, E44G, D58E, I80V, K83R, T85A, E91D, S98A, G101Q
VL: LIVLTQSPAIMSASPGEKVTMTCGATSRISYMFWYQQKPGSSPRVLIYDTSNLASGVPVRFSGSGSGTSYSLTISRVEAEDVATYYCQQWNSYPLTFGAGTKLELK
- loss of binding vs wild type [2]: > 95%
